Assay [1] concerns the target T1, EGFR on A431 cell surface (human, UniProt P00533 25-1210).
T1 construct: whole, on cells; also called EGFR expressed on A431 cell surface; EGFR on live A431 cell surface
The experiment in a line: cell-based ELISA on A431 cells, HRP-conjugated goat anti-mouse IgG, TMB, OD450. As to the method: (§1) 3. Cell ELISA assay A431 cells were seeded at 20,000 cells/well of 96-well plate in DMEM-10% FBS and incubated at 37° C. 5% CO₂. 24 hours later, discard the medium. After two washes with PBS and blocking with 5% skim-milk/PBS for 1 h, wells were incubated with different concentration of mLA22 and hLA22 in 5% skim-milk-PBS for another one hour. After two washes with PBS, wells were then incubated with HRP-conjugated goat anti-mouse IgG secondary antibodies or HRP-conjugated goat anti-human IgG secondary antibodies (Jackson Lab) in 5% skim-milk-PBS for 1 h at room temperature. After washes with PBS, HRP substrate 3, 3′, 5, 5′-tetramethylbenzidine (TMB) solution was added. The reaction was stopped with stop solution (0.1M […]) and absorbance was measured at 450 nm with a microplate reader.

Another assay deals with T2, ECD of rec. EGFR (human, UniProt P00533 25-645).
T2 construct: extracellular domain; also called human epidermal factor receptor (EGFR)
The experiment in a line: SPR (BIAcore), chip coated with ECD of rec. EGFR. The text has this: 1. Biacore assay. To test the affinity between human epidermal factor receptor (EGFR) and the present invention of humanized anti-EGFR antibody using BIAcore system which is based on the surface plasmon resonance technique, the chip was coated with ECD of rec. EGFR.

Assay [2] concerns the target T1, EGFR on A431 cell surface. The experiment in a line: cell-based ELISA on A431 cells, HRP-conjugated goat anti-human IgG, TMB, OD450. As to the method:
as §1

B1: Mouse monoclonal antibody LA22 (antibody, V domains shown)
VH: EVQLVESGGGLVQPGESLKLSCESNEYEFPSHDMSWVRKTPEERLELVAAITSDGISTYYPDTMERRFLISRDNTKKTLYLQMSSLRSEDTALYYCSRHDWDEGFASWGQGTLVTVSA
VL: DVVMTQTPLSLPVSLGDQASISCRSSQSLVHSNGNTYLHWYLQKPGQSPKLLIYKVSNRFSGVPDRFSGSGSGTDFTLKISRVEAEDLGIYFCSQSSHVPPAFGGGTKLEIK
notes: Mouse hybridoma antibody (ATCC deposit, US 5,459,061); the mouse constant regions are not; also called mLA22; mouse LA22
Regarding B1, in assay [1], the “EC50 (read off the curve)” value is ~1 µg/mL. In the assay with ECD of rec. EGFR, this molecule gave a dissociation constant (Kd) of 2 nM, a koff of 4.3e-05 s⁻¹ and a kon of 22000 M⁻¹ s⁻¹.

B2: Humanized LA22 (H1 + h2) (antibody, human IgG1, V domains shown)
VH: EVQLVESGGGLVQPGGSLRLSCESNEYEFPSHDMSWVRQAPGKGLEWVSAITSDGISTYYPDTMERRFTISRDNSKNTLYLQMNSLRAEDTAVYYCARHDWDEGFASWGQGTLVTVSS
VL: DVVMTQSPLSLPVTLGQPASISCRSSQSLVHSNGNTYLHWYQQRPGQSPRLLIYKVSNRFSGVPDRFSGSGSGTDFTLKISRVEAEDVGIYFCSQSSHVPPAFGGGTKLEIK
notes: Human IgG1 / kappa constant regions; also called H1-LA22 / h2-LA22
Consider B2, for which, in the assay with ECD of rec. EGFR, binding was characterised by a dissociation constant (Kd) of 14 nM, the koff stood at 0.000146 s⁻¹ and the kon worked out at 10400 M⁻¹ s⁻¹.

B3: Humanized LA22 (H3 + h2) (antibody, V domains shown)
VH: EVQLVESGGGLVQPGGSLRLSCASNEYEFPSHDMSWVRQTPGKGLEWVSAITSDGISTYYPDTMERRFTISRDNSKNTLYLQMSSLRAEDTAVYYCARHDWDEGFASWGQGTLVTVSS
VL: DVVMTQSPLSLPVTLGQPASISCRSSQSLVHSNGNTYLHWYQQRPGQSPRLLIYKVSNRFSGVPDRFSGSGSGTDFTLKISRVEAEDVGIYFCSQSSHVPPAFGGGTKLEIK
notes: also called hLA22; hLA22 h2H3
For B3, the “EC50 (read off the curve)” value in assay [2] is ~1 µg/mL. For the same molecule, in the assay with ECD of rec. EGFR, the Kd is 2.3 nM, the koff was 3.8e-05 s⁻¹ and the kon turned out to be 16400 M⁻¹ s⁻¹.

B4: Humanized LA22 (H0 + h2) (antibody, human IgG1, V domains shown)
VH: EVQLVESGGGLVQPGGSLRLSCAASEYEFPSHDMSWVRQAPGKGLEWVSAITSDGISTYYPDTMERRFTISRDNSKNTLYLQMNSLRAEDTAVYYCARHDWDEGFASWGQGTLVTVSS
VL: DVVMTQSPLSLPVTLGQPASISCRSSQSLVHSNGNTYLHWYQQRPGQSPRLLIYKVSNRFSGVPDRFSGSGSGTDFTLKISRVEAEDVGIYFCSQSSHVPPAFGGGTKLEIK
notes: Human IgG1 / kappa constant regions; also called HO-LA22 / h2-LA22
In the assay with ECD of rec. EGFR, B4 showed a Kd of 13.2 nM, a koff of 6.9e-05 s⁻¹ and a kon of 5200 M⁻¹ s⁻¹.

B5: Humanized LA22 (H4 + h2) (antibody, human IgG1, V domains shown)
VH: EVQLVESGGGLVQPGGSLRLSCASNEYEFPSHDMSWVRQTPGKRLEWVSAITSDGISTYYPDTMERRFTISRDNSKNTLYLQMSSLRAEDTAVYYCARHDWDEGFASWGQGTLVTVSS
VL: DVVMTQSPLSLPVTLGQPASISCRSSQSLVHSNGNTYLHWYQQRPGQSPRLLIYKVSNRFSGVPDRFSGSGSGTDFTLKISRVEAEDVGIYFCSQSSHVPPAFGGGTKLEIK
notes: Human IgG1 / kappa constant regions; also called H4-LA22 / h2-LA22
In the assay with ECD of rec. EGFR, B5 registered a Kd of 15.4 nM, a koff of 0.000188 s⁻¹ and a kon of 12200 M⁻¹ s⁻¹.

B6: Humanized LA22 (H2 + h2) (antibody, human IgG1, V domains shown)
VH: EVQLVESGGGLVQPGGSLRLSCESNEYEFPSHDMSWVRQAPGKGLEWVSAITSDGISTYYPDTMERRFTISRDNTKKTLYLQMNSLRAEDTAVYYCARHDWDEGFASWGQGTLVTVSS
VL: DVVMTQSPLSLPVTLGQPASISCRSSQSLVHSNGNTYLHWYQQRPGQSPRLLIYKVSNRFSGVPDRFSGSGSGTDFTLKISRVEAEDVGIYFCSQSSHVPPAFGGGTKLEIK
notes: Human IgG1 / kappa constant regions; also called H2-LA22 / h2-LA22
For B6, in the assay with ECD of rec. EGFR, binding was characterised by a dissociation constant (Kd) of 12 nM, the koff came out at 7.7e-05 s⁻¹ and the kon came out at 6400 M⁻¹ s⁻¹.

Source of the values: patent publication US20190010227A1 (WELSON PHARMACEUTICALS, published 2019).
